The text below walks through data of paper PMC2814163.

Like-named read-outs stand apart in the source and are kept apart here.

The target of test [1] is Dom1-3His (extracytoplasmic domains 1-3 of the bovine CI-MPR, residues 1-432, C-terminal His6) (bovine) (UniProt P08169). Nature of the test: SPR.
For test [2] the target is unchanged. Briefly: SPR. The source holds these as a separate data set.
Test [3] has as its target Dom1-2His (domains 1-2 of the bovine CI-MPR, residues 1-281, C-terminal His6) (bovine) (UniProt P08169). Briefly: SPR.
A further test addresses Dom1-3HisK125A (bovine) (UniProt P08169). Briefly: SPR.
Another test deals with Dom1-3HisK132A (bovine) (UniProt P08169). Nature of the test: SPR.
Dom1-3HisK132A (bovine), sequence (P08169 45-476 K176A): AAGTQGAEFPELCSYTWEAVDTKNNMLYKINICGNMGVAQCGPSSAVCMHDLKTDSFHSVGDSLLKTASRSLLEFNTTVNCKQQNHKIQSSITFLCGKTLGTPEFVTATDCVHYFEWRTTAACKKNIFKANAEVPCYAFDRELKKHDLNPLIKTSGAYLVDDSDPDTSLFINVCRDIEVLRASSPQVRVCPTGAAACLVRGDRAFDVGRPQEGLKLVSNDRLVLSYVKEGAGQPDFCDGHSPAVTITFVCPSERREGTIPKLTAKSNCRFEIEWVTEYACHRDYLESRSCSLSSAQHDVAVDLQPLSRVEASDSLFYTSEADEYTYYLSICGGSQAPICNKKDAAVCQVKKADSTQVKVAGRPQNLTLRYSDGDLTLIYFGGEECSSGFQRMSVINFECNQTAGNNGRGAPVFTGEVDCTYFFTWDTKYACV
Another test addresses Dom1-3HisK215A (bovine) (UniProt P08169). Briefly: SPR.
Another test addresses Dom1-3HisK23A (bovine) (UniProt P08169). Briefly: SPR.
Another test has as its target Dom1-3HisK53A (bovine) (UniProt P08169). Nature of the test: SPR.
Another test deals with Dom1-3HisK82A (bovine) (UniProt P08169). Nature of the test: SPR.
Dom1-3HisK82A (bovine), sequence (P08169 45-476 K126A): as the sequence (P08169 45-476 K176A) above, with K82A, A132K counted along it
The next test deals with Dom1-3HisK98A (bovine) (UniProt P08169). Briefly: SPR.
Dom1-3HisK98A (bovine), sequence (P08169 45-476 K142A): as the sequence (P08169 45-476 K176A) above, with K98A, A132K counted along it
The target in another test is Dom1-3HisR118A (bovine) (UniProt P08169). Briefly: SPR.
Dom1-3HisR118A (bovine), sequence (P08169 45-476 R162A): as the sequence (P08169 45-476 K176A) above, with R118A, A132K counted along it
Test [4] concerns the target Dom1His (domain 1 of the bovine CI-MPR, residues 1-123, C-terminal His6) (bovine) (UniProt P08169). Nature of the test: SPR.
Test [5] addresses soluble form of the cation-independent mannose 6-phosphate receptor isolated from fetal bovine serum (bovine) (UniProt P08169). Nature of the test: SPR.
Test [6] addresses plasminogen (Homo sapiens) (UniProt P00747). The following applies: cited from earlier work.

Dom1-3His (extracytoplasmic domains 1-3 of the bovine CI-MPR, residues 1-432, C-terminal His6) (bovine), sequence (P08169 45-476): as the sequence (P08169 45-476 K176A) above, with A132K counted along it
Dom1His (domain 1 of the bovine CI-MPR, residues 1-123, C-terminal His6) (bovine), sequence (P08169 45-167): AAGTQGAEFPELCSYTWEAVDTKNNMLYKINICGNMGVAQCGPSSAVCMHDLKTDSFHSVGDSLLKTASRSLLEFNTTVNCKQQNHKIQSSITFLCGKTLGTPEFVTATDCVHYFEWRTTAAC
Dom1-3HisK53A (bovine), sequence (P08169 45-476 K97A): as the sequence (P08169 45-476 K176A) above, with K53A, A132K counted along it
Dom1-3HisK125A (bovine), sequence (P08169 45-476 K169A): as the sequence (P08169 45-476 K176A) above, with K125A, A132K counted along it
Dom1-3HisK23A (bovine), sequence (P08169 45-476 K67A): as the sequence (P08169 45-476 K176A) above, with K23A, A132K counted along it
Dom1-3HisK215A (bovine), sequence (P08169 45-476 K259A): as the sequence (P08169 45-476 K176A) above, with A132K, K215A counted along it
soluble form of the cation-independent mannose 6-phosphate receptor isolated from fetal bovine serum (bovine), sequence (P08169 45-2313): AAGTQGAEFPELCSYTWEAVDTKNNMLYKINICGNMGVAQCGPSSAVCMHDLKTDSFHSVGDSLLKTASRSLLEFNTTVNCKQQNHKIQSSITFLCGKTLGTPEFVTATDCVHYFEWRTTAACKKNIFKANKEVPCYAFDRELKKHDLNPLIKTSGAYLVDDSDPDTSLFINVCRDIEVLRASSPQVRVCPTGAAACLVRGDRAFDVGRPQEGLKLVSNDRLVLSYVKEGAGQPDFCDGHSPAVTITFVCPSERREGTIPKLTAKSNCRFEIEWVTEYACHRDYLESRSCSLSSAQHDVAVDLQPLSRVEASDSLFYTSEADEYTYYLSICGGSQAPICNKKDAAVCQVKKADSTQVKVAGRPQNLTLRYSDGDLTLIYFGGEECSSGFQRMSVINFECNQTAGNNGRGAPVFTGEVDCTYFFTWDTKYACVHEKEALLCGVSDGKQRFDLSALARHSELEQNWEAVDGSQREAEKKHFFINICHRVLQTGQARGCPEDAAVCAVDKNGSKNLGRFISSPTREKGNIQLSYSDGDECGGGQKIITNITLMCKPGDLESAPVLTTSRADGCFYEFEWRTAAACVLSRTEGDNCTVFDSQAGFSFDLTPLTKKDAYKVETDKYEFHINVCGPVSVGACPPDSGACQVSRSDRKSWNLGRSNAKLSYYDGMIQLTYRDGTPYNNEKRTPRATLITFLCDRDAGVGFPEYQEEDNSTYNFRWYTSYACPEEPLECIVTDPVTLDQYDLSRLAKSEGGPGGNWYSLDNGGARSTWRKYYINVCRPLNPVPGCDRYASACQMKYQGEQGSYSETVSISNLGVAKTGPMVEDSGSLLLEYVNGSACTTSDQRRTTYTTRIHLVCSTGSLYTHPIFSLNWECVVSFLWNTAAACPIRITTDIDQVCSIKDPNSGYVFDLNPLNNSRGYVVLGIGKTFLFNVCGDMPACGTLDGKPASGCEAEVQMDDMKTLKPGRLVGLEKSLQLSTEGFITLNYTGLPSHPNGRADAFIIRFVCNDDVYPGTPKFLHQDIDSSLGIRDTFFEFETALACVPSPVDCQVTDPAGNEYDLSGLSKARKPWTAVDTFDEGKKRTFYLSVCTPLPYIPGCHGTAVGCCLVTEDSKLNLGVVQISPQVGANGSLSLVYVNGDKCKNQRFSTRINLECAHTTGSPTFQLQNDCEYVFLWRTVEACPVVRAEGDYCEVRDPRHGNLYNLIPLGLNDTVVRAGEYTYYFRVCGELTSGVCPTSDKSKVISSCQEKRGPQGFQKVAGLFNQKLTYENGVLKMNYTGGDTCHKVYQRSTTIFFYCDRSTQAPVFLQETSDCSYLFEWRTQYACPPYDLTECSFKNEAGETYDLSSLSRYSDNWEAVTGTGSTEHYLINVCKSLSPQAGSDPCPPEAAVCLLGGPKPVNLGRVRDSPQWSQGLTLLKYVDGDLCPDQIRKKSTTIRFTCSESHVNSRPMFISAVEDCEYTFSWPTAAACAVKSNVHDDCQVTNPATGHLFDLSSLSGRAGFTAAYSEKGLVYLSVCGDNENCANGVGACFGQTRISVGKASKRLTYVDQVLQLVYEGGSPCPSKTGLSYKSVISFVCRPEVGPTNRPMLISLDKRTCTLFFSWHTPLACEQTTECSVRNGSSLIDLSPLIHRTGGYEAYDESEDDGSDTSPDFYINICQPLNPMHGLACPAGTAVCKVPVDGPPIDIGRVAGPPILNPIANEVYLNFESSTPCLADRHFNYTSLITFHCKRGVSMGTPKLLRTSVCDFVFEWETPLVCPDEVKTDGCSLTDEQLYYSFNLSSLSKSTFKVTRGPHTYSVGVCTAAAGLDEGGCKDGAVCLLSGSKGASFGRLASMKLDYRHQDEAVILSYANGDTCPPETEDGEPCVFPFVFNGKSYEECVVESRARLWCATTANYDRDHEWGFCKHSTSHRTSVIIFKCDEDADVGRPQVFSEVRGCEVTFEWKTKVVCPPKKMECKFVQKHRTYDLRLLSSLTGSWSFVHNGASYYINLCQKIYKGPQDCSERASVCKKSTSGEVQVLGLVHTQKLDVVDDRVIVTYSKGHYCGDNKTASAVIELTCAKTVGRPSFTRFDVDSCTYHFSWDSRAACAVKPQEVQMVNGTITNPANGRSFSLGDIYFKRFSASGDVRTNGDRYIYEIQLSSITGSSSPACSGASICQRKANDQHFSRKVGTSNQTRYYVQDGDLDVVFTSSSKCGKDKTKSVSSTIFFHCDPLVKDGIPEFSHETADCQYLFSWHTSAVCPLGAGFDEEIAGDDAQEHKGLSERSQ
Dom1-2His (domains 1-2 of the bovine CI-MPR, residues 1-281, C-terminal His6) (bovine), sequence (P08169 45-325): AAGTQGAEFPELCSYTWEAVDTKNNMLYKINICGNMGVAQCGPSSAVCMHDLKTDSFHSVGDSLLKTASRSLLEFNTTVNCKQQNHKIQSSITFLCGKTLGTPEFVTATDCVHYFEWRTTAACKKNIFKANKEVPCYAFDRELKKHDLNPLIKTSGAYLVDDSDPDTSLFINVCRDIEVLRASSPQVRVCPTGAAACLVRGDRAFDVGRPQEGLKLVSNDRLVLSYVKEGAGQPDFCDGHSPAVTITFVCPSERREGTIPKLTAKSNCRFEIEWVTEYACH
plasminogen (Homo sapiens), sequence (P00747 20-810): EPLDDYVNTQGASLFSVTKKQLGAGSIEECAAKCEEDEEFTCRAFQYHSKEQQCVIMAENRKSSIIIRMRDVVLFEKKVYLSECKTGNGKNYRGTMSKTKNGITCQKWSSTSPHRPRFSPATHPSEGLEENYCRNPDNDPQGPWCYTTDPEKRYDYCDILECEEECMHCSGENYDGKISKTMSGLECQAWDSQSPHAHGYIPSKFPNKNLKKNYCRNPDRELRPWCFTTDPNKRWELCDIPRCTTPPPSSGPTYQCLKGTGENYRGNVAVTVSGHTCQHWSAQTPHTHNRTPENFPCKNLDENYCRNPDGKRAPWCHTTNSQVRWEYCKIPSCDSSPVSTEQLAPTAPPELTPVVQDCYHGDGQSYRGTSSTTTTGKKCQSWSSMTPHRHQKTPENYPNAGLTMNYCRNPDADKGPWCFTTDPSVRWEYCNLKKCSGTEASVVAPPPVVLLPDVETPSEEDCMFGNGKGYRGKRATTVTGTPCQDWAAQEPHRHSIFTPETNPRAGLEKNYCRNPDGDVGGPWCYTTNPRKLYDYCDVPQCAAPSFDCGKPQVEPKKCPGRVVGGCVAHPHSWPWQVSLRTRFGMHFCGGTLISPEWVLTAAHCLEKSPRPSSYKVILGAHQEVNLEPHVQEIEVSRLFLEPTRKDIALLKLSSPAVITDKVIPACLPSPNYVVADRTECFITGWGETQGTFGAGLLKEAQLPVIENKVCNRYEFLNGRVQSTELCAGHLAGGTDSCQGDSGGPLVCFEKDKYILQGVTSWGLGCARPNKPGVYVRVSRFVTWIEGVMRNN

“human angiostatin K1-4 (domain or fragment)”: the Kd in test [1] worked out at 170 nM.
As to “bovine Glu-plasminogen (natural protein)”, the Kd in [2] was 131 nM; in test [1], 271 nM; in the test with Dom1-3HisK125A (bovine), above 2000 nM; in the test with Dom1-3HisK132A (bovine), 64 nM; with Dom1-3HisK215A (bovine), 10 nM; with Dom1-3HisK23A (bovine), 33 nM. Further, the Kd with Dom1-3HisK53A (bovine) is above 2000 nM; with Dom1-3HisK82A (bovine), 69 nM; with Dom1-3HisK98A (bovine) it was 24 nM; with Dom1-3HisR118A (bovine), 21 nM. Moreover, the Kd2 (two-site model) was 170 nM in [3], above 2 µM in test [4] and 290 nM in test [5]. Also, the Kd1 (two-site model) in [4] is above 2 µM.
Regarding CI-MPR (from UniProt P11717), in [6], the Kd is 270 nM.
